In patent US20240101645A1 (HENRY M JACKSON FOUNDATION FOR THE ADVANCEMENT OF MILITARY …, published 2024):

Target: SARS-CoV-1 S on pseudovirions (Sino 1-11, 28 amino acid C-terminal deletion) (SARS-CoV-1, UniProt P59594 14-1227)
Assay: cell-based or functional assay

B1: COV_2063 (antibody, V domains shown)
VH: EVQLVESGGGVVQPGRSLRLSCAASGFTFSSYGMHWVRQAPGKGLEWVAVIWYDGSNKYYADSVKGRFTISRDNSKNTLYLQMNSLRAEDTAVYYCARGPLGSNYFNYDAFDIWGQGTMVTVSS
VL: DVVMTQSPLSLPVTLGQPASISCRSSQSLEYSDGNTYLNWFQQRPGQSPRRLIYKVSKRDSGVPDRFSGSGSGSDFTLKISRVEAEDVGVYYCMQGTHWPLTFGGGTKVEIK
IC50, SARS-CoV-1 pseudotyped neutralization: 0.095 µg/mL
